Paper PMC2686270

Target: 6xHis-SpaK G392A (C-terminal half of SpaK) (Bacillus subtilis)

autophosphorylation restored by combining the two SpaK mutants, each inactive alone (intermolecular complementation; 32P-ATP, SDS-PAGE and autoradiography, Fig. 5B lane 6) (% of wild type): 25
Substance: 6xHis-SpaK H247Q (C-terminal half of SpaK) (domain or fragment)
